The source of these data is publication doi:10.1101/2022.11.12.516293.

Read-outs that look alike come from different tables or passages of the source.

What all share (assay): EMSA
(In general: Mobility shift assays separate free from complexed probe on a gel.)

In data set [1] the target is T1, PU.1 (UniProt P17947 1-270).
The target in data set [2] is T1, PU.1. The source holds these as a separate data set.
For data set [3], the target named is T1, PU.1. The source holds these as a separate data set.

B1: rs1320496-T (dsDNA)
DNA 1: CAGGAGGGGAAGTGGGATGCATGAGAAGAGGACGCGTTTC
DNA 2: GAAACGCGTCCTCTTCTCATGCATCCCACTTCCCCTCCTG
On to B1, for which, in data set [1], the binding result is “binds”.

B2: rs1412445-T (dsDNA)
DNA 1: GGTCATTAGGAGGATGTTGGTGCTATTAATAATAGAG
DNA 2: CTCTATTATTAATAGCACCAACATCCTCCTAATGACC
As to B2, the binding result in data set [2] was “no binding”.

B3: rs1412444-T (dsDNA)
DNA 1: CTATTTGCCTTTAAACACTGGAAATAACACCAGTGGC
DNA 2: GCCACTGGTGTTATTTCCAGTGTTTAAAGGCAAATAG
Regarding B3, in data set [3], the binding result was “binds”.
